In paper PMC3268058 (2010):

Molecular target: SRC SH3 domain (GST-SH3(SRC)) 83-139 (Gallus gallus, UniProt P00523)
Assay: fluorescence polarization competition

Kd | Binder
0.55 µM | VSLARRPLPPLPRL [AGT(PP2) fusion]
7 µM | RAARPLPPLPP [AGT(PP3) fusion]
